In article PMC9596371 (Nature Chemical Biology, 2022):

These binders were tested against T1, SARS-CoV-2 spike protein (FL-GCN4-Avi-His, 2P, biotinylated trimer) (SARS-CoV-2, Wuhan-Hu-1 (strain named …, UniProt P0DTC2, stabilised, biotin on the Avi tag)) (assay: BLI). Conditions: both partners purified.

Binder | binding result
COV2-2147 IgG (antibody, V domains shown) VH: QVQLAESGGGVVQPGRSLRLSCAASGFTFSSYAMHWVRQAPGKGLEWVAVISYDGSNKYYADSVKGRFTISRDNSKNTLYLQMNSLRAEDTAVYYCARSTSGSYYYGMDVWGQGTTVTVSS VL: QSALTQPASVSGSPGQSITISCTGTSSDVGDYNYVSWYQQHPGKAPKLMIYDVSNRPSGVSNRFSGSKSGNTASLTISGLQAEDEAEYYCSSYTSSSTLLYVFGTGTKVTVL | binds
CV27 Fab (Fab, V domains shown) VH: QVQLVESGGGVVQPGRSLRLSCAASGFTFSSYAMHWVRQAPGKGLEWVALISYDGSNKYYADSVKGRFTISRDNSKNTLYLQMNSLRAEDTAVYYCARSFGGSYYYGMDVWGQGTTVTVSS VL: QSALTQPASVSGSPGQSITISCTGTSSDVGGYNYVSWYQQHPGKAPKLMIYDVSNRPSGVSNRFSGSKSGNTASLTISGLQAEDEADYYCSSYTSSSTPYVFGTGTKVTVL | binds
COVA2-14 IgG (antibody, V domains shown) VH: QVQLVQSGAEVKKPGSSVKVSCKASGGTFSSYAIIWVRQAPGQGLEWMGGIIPIFGTANYAQKFQGRVTITTDESTSTAYMELSSLRSEDTAVYYCARVRYYDSSGYYEDYWGQGTLVTVSS VL: EIVLTQSPATLSLSPGERATLSCRASQSVSSYLAWYQQEPGQAPRLLIYDASNRATGIPARFSGSGSGTDFTLTISSLEPEDFAVYYCQQRSNWPPMYTFGQGTKVEIK | binds
COVA2-18 IgG (antibody, V domains shown) VH: EVQLVQSGAEVKKPGSSVKVSCKASGGTFSSYAISWVRQAPGQGLEWMGGIIPIFGTTNYAQKFQGRVTITTDESTSTAYMELSSLRSEDTAVYYCARVYSYDSSGYYLEYWGQGTRVTVSS VL: EIVLTQSPATLSLSPGERATLSCRASQSVSSYLAWYQQKPGQAPRLLIYDASNRATGIPARFSGSGSGTDFTLTISSLEPEDFAVYYCQQRSNWPPSITFGQGTRLEIK | binds
COVA2-14 Fab (Fab, V domains shown) VH: QVQLVQSGAEVKKPGSSVKVSCKASGGTFSSYAIIWVRQAPGQGLEWMGGIIPIFGTANYAQKFQGRVTITTDESTSTAYMELSSLRSEDTAVYYCARVRYYDSSGYYEDYWGQGTLVTVSS VL: EIVLTQSPATLSLSPGERATLSCRASQSVSSYLAWYQQEPGQAPRLLIYDASNRATGIPARFSGSGSGTDFTLTISSLEPEDFAVYYCQQRSNWPPMYTFGQGTKVEIK | binds
COV2-2449 Fab (Fab, V domains shown) VH: QVQLVESGGGVVQPGRSLRLSCATSGFTFSSFALHWVRQAPGKGLEWVTVISDDGNNKYYVDSVKGRFTISRDNSKNTLFLQMNSLRVEDTAIYYCARASYNSNWSIGEYFRDWGQGTLVTVSS VL: not shown | binds
COV2-2143 Fab (Fab, V domains shown) VH: EVQLVESGGGLVQPGGSLRLSCAASGFTVSSNYMSWVRQAPGKGLEWVSVIYSAGSTYYADSVKGRFSISRDKSKNTLYLQMNSLRAEDTAVYYCAKEGGSGSLRYYYYGMDVWGQGTTVTVSS VL: not shown | binds

Each binder was assayed against T1, SARS-CoV-2 spike protein … (assay: ELISA). Conditions: both partners purified.

Binder | binding result
CV27 IgG (antibody, V domains shown) VH: QVQLVESGGGVVQPGRSLRLSCAASGFTFSSYAMHWVRQAPGKGLEWVALISYDGSNKYYADSVKGRFTISRDNSKNTLYLQMNSLRAEDTAVYYCARSFGGSYYYGMDVWGQGTTVTVSS VL: QSALTQPASVSGSPGQSITISCTGTSSDVGGYNYVSWYQQHPGKAPKLMIYDVSNRPSGVSNRFSGSKSGNTASLTISGLQAEDEADYYCSSYTSSSTPYVFGTGTKVTVL | binds
COV2-2449 IgG (antibody, V domains shown) VH: QVQLVESGGGVVQPGRSLRLSCATSGFTFSSFALHWVRQAPGKGLEWVTVISDDGNNKYYVDSVKGRFTISRDNSKNTLFLQMNSLRVEDTAIYYCARASYNSNWSIGEYFRDWGQGTLVTVSS VL: not shown | binds
COV2-2143 IgG (antibody, V domains shown) VH: EVQLVESGGGLVQPGGSLRLSCAASGFTVSSNYMSWVRQAPGKGLEWVSVIYSAGSTYYADSVKGRFSISRDKSKNTLYLQMNSLRAEDTAVYYCAKEGGSGSLRYYYYGMDVWGQGTTVTVSS VL: not shown | binds
